Measurements from patent US8647828B2, “Intracellular targeting of molecules via syndecan-4” (Szilak Laboratories Bioinformatics & Molecule-Design Ltd., priority 2007, dated 2014).
Ends that are not written are not given here.

Tests used:
syndecan-4 [1] = test: FGF2 stimulated syndecan-4 endocytosis, time-lapse confocal microscopy; format: cell-based, human; conditions: HT1080, 22° C., 0, 10 and 60 minutes
syndecan-4 [2] = target: T1, syndecan-4 (Homo sapiens, UniProt P31431); test: Syndecan-4 mediated internalization and nuclear targeting of FITC labeled basic peptides (immunofluorescent microscopy); format: cell-based; conditions: 10 μM FITC labeled peptide
T1 construct: comprising the full, human syndecan-4 cDNA driven by cytomegalovirus (CMV) promoter; expressed in transfected cells; host or cells: HT1080 fibrosarcoma, MCF7 adenocarcinoma
T1 sequence (P31431 19-198): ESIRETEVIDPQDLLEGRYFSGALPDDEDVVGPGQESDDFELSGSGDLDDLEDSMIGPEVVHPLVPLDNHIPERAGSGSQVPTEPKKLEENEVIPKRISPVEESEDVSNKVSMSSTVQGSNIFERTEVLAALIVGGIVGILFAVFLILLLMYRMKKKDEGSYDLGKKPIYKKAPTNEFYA
From the text: Green fluorescent protein (GFP, Clontech; Palo Alto, Calif., USA) labeled fusion proteins were used to follow the process of the endocytosis of syndecan-4 in vivo. GFP was inserted into the syndecan-4 extracellular region in the HuSynd4 pCMV construct, comprising the full, human syndecan-4 cDNA driven by cytomegalovirus (CMV) promoter by using techniques well-known by the person skilled in the art. To avoid possible artifacts, every experiment was repeated with all of the constructs; HuSynd4 pCMV and the GFP chimeras. To reveal the role and the importance of phosphorylation stage of Ser179, mutations were introduced into the cytoplasmic tail region of syndecan-4-GFP chimeras. […]
Syndecan-4 is able to carry the agents bound on the cell surface into the cell. […] The cells were permeabilized with 0.1% triton X-100 (Sigma, St. Louis, Mo., USA) in PBS, and syndecan-4 was visualized with anti-syndecan-4 ectodomain serum (Zymed, San Francisco, Calif., USA), monitored by immunofluorescent microscopy. […] The labeled molecules were detected in distinct compartments of cytoplasm, which indicate that the syndecan-4 was able to internalize and traffic the attached agents, like antibodies, and basic peptides along, holding the specifically bound agents intact throughout the whole process. […]

nuclear accumulation of labeled oligopeptide, colocalized with syndecan-4 (syndecan-4 [2])	Substance	syndecan-4 endocytosis (syndecan-4 [1])	triggering of syndecan-4 endocytosis and penetration into the cell (syndecan-4 [2]; incubated for an hour)
	FGF2: basic fibroblast growth factor, stimulator of syndecan-4 endocytosis	stimulated	
accumulated in the nucleus	KRKRKR (also: FITC label) [6 amino acid basic oligopeptide, fluorescently (FITC) labeled]		able to trigger the endocytosis, and penetrate
